Assay results reported in patent US20240240203A1.

Columns and labels:
[1] = biological target: Ad5 hexon capsid protein with DogTag inserted into the HVR5 loop, on Ad5 virions (Ad5-HVR5-DogTag) (human adenovirus serotype 5 (Ad5)) (UniProt P04133)
[2] = biological target: Ad5 hexon capsid protein with DogTag inserted into the HVR5 loop, on Ad5 virions (Ad5-HVR5-DogTag) (human adenovirus serotype 5 (Ad5)) (UniProt P04133); remark: listed apart in the source

Substance	coupling efficiency (% total hexon protein coupled) [1] [%]	coupling efficiency (% hexon coupled) [2] [%]
DogCatcher fused to SARS CoV-2 Spike receptor binding domain (Wuhan strain, residues 319-532) (from UniProt P0DTC2 319-532)	64	
DogCatcher fused to the receptor binding domain of haemagglutinin (HA) from Influenza A (H1 A/Califo		44
